According to paper PMC6557901, “Rif1 S-acylation mediates DNA double-strand break repair at the inner nuclear membrane”:

Biological target: T1, Rif1 NTD (100-1322) wild-type (Saccharomyces cerevisiae, UniProt P29539 100-1322)
T1 sequence: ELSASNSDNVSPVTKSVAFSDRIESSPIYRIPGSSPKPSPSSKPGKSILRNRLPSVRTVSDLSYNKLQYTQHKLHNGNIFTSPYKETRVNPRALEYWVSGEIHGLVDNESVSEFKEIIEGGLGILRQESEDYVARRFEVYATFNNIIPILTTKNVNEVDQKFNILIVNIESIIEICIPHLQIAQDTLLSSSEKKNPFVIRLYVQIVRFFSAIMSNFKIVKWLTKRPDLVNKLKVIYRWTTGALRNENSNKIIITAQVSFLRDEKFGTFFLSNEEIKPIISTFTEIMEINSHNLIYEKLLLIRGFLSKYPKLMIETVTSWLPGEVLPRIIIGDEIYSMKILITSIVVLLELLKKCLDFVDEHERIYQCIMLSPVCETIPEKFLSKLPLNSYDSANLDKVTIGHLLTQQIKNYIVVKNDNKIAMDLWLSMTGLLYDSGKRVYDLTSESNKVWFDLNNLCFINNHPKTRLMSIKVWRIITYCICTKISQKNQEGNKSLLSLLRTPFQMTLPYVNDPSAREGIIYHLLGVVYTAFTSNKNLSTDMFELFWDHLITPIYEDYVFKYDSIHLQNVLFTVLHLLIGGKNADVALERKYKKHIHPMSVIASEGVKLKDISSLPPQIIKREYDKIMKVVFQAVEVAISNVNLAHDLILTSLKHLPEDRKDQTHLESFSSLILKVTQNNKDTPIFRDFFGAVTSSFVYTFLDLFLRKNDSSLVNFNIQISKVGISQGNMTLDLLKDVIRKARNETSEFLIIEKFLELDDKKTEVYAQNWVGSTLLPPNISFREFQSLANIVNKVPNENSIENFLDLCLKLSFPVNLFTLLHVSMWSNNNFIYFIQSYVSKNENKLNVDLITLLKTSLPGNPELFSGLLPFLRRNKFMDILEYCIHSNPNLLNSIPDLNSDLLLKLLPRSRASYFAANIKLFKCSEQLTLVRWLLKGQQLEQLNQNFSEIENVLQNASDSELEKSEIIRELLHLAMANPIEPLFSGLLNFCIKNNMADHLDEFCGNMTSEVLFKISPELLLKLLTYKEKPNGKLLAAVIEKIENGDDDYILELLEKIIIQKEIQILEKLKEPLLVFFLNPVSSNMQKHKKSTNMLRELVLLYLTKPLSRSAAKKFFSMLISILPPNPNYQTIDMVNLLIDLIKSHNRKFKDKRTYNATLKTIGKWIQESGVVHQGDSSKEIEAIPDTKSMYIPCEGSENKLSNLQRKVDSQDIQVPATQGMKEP
Test: EMSA; protein 10-160 nM, DNA 1 nM; 20 mM Tris-HCl pH 8.0, 100 mM NaCl, 2.5 mM MgCl2, 10 mM CaCl2, 0.1 mg/ml BSA, 1 mM TCEP, 30 min at 20 °C; 1.2% agarose gel, 0.5x TBE, 4 °C
Conditions: protein: recombinant; tags: N-terminal Strep(II); label: 5'-32P on EMSA1; blunt

B1: 30 bp dsDNA (EMSA1/EMSA2) (dsDNA)
DNA 1: TAGCAAGGCACTGGTAGAATTCGGCAGCGT
DNA 2: ACGCTGCCGAATTCTACCAGTGCCTTGCTA
**Q.** Does B1 bind?
**A.** binds
